Like-named read-outs stand apart in the source and are kept apart here. One block for each binder: values may come before it.
Assays:
[1] = biological target: T1, mouse TMPRSS6 expressed on HEK293T cells (MoTMPRSS6-(His)6) (UniProt Q9DBI0 1-811); experiment: cell surface ELISA
T1 chain: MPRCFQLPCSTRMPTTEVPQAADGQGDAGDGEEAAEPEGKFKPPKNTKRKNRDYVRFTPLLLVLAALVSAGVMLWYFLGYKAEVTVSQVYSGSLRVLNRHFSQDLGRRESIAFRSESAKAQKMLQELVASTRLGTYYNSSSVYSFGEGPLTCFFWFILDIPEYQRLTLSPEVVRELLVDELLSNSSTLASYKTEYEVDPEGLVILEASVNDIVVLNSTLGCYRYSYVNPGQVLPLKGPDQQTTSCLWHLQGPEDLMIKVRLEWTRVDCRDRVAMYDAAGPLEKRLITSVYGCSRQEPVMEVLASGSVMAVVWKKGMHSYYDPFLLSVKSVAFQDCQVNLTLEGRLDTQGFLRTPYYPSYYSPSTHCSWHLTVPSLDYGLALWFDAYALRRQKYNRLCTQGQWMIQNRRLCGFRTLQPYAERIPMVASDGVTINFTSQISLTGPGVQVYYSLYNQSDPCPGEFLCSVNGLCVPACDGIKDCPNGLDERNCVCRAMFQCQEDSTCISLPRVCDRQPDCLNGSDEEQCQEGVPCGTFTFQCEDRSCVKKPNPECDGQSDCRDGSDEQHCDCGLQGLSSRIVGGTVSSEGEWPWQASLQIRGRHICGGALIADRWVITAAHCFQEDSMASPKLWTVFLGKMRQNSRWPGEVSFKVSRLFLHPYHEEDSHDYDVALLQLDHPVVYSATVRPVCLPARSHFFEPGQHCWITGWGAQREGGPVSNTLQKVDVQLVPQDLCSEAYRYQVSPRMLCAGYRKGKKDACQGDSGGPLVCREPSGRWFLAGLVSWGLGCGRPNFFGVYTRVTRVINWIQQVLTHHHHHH

[2] = biological target: T2, cynomolgus monkey TMPRSS6 expressed on HEK293T cells (CynoTMPRSS6-(His)6); experiment: cell surface ELISA
T2 chain: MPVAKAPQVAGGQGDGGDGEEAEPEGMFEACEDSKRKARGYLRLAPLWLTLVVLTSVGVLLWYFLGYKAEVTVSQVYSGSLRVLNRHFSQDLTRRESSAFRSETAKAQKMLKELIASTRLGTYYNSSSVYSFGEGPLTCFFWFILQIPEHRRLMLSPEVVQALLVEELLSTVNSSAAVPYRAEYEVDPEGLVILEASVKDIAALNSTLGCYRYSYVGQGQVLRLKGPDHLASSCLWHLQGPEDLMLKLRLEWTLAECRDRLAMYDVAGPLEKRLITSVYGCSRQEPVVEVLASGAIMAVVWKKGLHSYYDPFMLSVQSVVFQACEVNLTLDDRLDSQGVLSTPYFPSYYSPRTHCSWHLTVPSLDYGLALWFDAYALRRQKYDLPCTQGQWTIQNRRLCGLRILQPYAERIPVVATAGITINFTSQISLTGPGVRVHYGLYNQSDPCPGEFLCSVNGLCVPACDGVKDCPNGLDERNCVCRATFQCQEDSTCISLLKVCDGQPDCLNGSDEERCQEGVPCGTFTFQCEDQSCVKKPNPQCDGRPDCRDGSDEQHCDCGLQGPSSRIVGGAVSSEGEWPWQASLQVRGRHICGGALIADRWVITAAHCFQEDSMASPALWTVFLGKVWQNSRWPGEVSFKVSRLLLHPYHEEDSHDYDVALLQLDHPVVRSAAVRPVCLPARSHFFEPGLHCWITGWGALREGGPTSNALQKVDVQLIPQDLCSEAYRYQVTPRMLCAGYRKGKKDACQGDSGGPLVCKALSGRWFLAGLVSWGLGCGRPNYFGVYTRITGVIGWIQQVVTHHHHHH

[3] = biological target: T3, human TMPRSS6 (matriptase-2) expressed on HEK293T cells (HuTMPRSS6-(His)6) (UniProt Q8IU80 10-811); experiment: cell surface ELISA
T3 chain: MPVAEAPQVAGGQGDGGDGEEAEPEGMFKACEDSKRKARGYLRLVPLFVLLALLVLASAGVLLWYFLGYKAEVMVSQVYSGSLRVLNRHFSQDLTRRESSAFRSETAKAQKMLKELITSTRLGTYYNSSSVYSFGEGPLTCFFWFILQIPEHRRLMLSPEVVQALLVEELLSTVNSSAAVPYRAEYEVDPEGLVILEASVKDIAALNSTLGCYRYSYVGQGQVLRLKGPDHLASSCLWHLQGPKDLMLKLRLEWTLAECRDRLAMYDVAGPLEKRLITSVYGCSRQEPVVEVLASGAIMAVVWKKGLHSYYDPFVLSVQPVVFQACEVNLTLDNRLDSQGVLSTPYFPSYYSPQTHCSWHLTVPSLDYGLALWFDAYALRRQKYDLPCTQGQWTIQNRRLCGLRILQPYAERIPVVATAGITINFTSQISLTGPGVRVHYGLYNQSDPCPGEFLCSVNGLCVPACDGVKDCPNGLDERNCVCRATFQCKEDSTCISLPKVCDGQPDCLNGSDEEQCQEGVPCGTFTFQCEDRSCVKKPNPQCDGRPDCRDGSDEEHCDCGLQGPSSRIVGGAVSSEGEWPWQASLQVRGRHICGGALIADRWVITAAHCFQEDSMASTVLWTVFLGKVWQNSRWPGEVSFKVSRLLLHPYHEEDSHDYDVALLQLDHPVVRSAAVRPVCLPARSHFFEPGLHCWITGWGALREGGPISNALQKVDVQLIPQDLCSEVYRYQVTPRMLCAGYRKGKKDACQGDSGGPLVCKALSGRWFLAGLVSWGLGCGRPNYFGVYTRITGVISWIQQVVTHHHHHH

[4] = biological target: T3, human TMPRSS6 (matriptase-2) expressed …; experiment: FACS
[5] = biological target: T1, mouse TMPRSS6 expressed on HEK293T …; experiment: cell surface ELISA
[6] = biological target: T2, cynomolgus monkey TMPRSS6 expressed on …; experiment: cell surface ELISA

EC50 [1]: 0.07 µg/mL
EC50 [2]: 0.09 µg/mL
EC50 [3]: 0.05 µg/mL
EC50 [4]: 0.2 µg/mL
B1: MWTx-003 anti-TMPRSS6 antibody (antibody, V domains shown)
VH: EVQLQQSGAELVKPGASVKLSCTASGFNIEDYYIHWVKERTEQGLEWIGRIDPEDGETTYAPQFQGKATIIPDTSSNTAYMQLSSLTSEDAAVYYCARSIYLDPMDYWGQGTSVTVSS
VL: DIVMTQSHKFMSTSVGDRVSITCKASQDVTTAVAWYQQKPGQSPKILIYWATTRHTGVPDRFTGSISGTTYILTISSVQAEDLALYYCQQHYSTPYTFGGGTKLEIKR

EC50 [1]: 0.25 µg/mL
EC50 [2]: 0.1 µg/mL
EC50 [3]: 0.2 µg/mL
EC50 [4]: 1 µg/mL
B2: MWTx-001 anti-TMPRSS6 antibody (antibody, V domains shown)
VH: QVQLQQPGAELAKPGASVKMSCKASGYTFTSYWITWVKQRPGQDLEWIGNIYPGSGSTYYNEKFKSKATLTVDTSSRTAYMQLSSLTSADSAVYYCAPYDSDYAMDYWGQGTSVTVSS
VL: DIKMTQSPSSMYASLGERVTITCKASQDINNYLSWFQQKPGKSPKTLIYRANRLVDGVPSRVSGSGSGQDYSLTISSLEYEDVGIYFCLQYDEFPLTFGAGTKLELKR

EC50 [5]: 0.03 µg/mL
EC50 [6]: 0.003 µg/mL
B3: hzMWTx-001Var anti-TMPRSS6 antibody (antibody, V domains shown)
VH: EVQLVQSGAEVKKPGASVKVSCKASGYTFTSYWITWVRQAPGQRLEWIGNIYPGSGSTYYNEKFKSKATITRDTSSRTAYMELSSLRSEDTAVYYCAPYDADYAMDYWGQGTLVTVSS
VL: DIQMTQSPSSLSASVGDRVTITCKASQDISNYLSWFQQKPGKAPKLLIYRANRLVEGVPSRFSGSGSGTDFTLTISSLQPEDFATYFCLQYDEFPLTFGGGTKVEIKR

EC50 [2]: 0.06 µg/mL
EC50 [3]: 0.04 µg/mL
EC50 [4]: 0.2 µg/mL
B4: MWTx-002 anti-TMPRSS6 antibody (antibody, V domains shown)
VH: EVQLQQSGAELVKPGASVKLSCTASGFNIKDYYIHWVKERTEQGLEWFGRIDPEDGESEYAPKFQGKATLTADTSSNTAYLQLSSLTSEDTAVYYCTRGDSMMVTYFDYWGQGTTLTVSS
VL: DIVMTQSHKFMSTSVGDRVSITCKASQDVSTAVAWYQQKPGQSPKLLIYWAFTRHTGVPDRFTSTGSGTDYALTISSVQAEDLALYYCQQHYRSPWTFGGGTKLEIKR

EC50 [5]: 0.31 µg/mL
EC50 [6]: 0.03 µg/mL
B5: hzMWTx-003Var anti-TMPRSS6 antibody (antibody, V domains shown)
VH: QVQLVQSGAEVKKPGASVKVSCKASGFNIEDYYMHWVRQAPGQRLEWMGRIDPEDAETTYSPKFQGRVTIIPDTSANTAYMELSSLRSEDTAVYYCARSIYLDPMDYWGQGTLVTVSS
VL: DIQMTQSPKSLSASVGDRVTITCRASQDVTTALAWYQQKPGQSPKLLIYWATTRHSGVPSRFSGSGSGTDFTLTISSLQPEDFATYYCQQHYSTPYTFGQGTKLEIKR

EC50 [6]: 0.06 µg/mL
B6: hzMWTx-002Var anti-TMPRSS6 antibody (antibody, V domains shown)
VH: EVQLVQSGAEVKKPGASVKVSCKASGFNIKDYYIHWVRQATGQGLEWMGRIDPEDAESEYAPKFQGRVTITADTSTDTAYMELSSLRSEDTAVYYCTRGDSMMVTYFDYWGQGTLVTVSS
VL: DIQMTQSPSSLSASVGDRVTITCKASQDVSTAVAWYQQKPGKAPKLLIYWAFTRHTGVPSRFSGSGSGTDYALTISSLQPEDFATYYCQQHYRSPWTFGGGTKVEIKR

Reference: US20230295345A1 (published 2023)
